Values of other authors in article PMC6757120.
pKd: −log10 of the molar value.

Target: VEGF-A165 (Homo sapiens) (UniProt P15692)
Chain of UniProt P15692 (P15692 whole entry): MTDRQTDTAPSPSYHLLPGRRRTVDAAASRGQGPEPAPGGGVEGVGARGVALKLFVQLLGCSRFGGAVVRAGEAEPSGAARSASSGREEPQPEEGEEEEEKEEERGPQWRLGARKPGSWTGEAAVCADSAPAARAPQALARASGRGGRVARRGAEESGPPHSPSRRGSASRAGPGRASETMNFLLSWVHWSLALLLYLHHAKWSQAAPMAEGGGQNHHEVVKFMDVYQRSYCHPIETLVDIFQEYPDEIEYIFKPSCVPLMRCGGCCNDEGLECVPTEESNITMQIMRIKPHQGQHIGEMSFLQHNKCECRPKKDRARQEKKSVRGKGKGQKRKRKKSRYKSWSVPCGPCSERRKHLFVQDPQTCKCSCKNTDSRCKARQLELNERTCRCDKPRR

pKd: 8.52
Substance: NRP1 (from UniProt O14786)
